Data on one substance can be found in publication PMC2885749.

What is called stoichiometry N is the number of molecules, sites or subunits per partner or assembly.

This test addresses TolCΔ2–22 (signal sequence-less mature TolC, His-tagged) (E. coli) (UniProt P02930). In words: SDS-PAGE of unheated samples.

“TolCΔ2–22 (signal sequence-less mature TolC, His-tagged) (from UniProt P02930 23-493) (natural protein)” returned a stoichiometry N of 3.
